Laboratory results published in patent US20220281997A1 (NANJING GENSCRIPT BIOTECH, published 2022).

Legend:
[1] = molecular target: T1, His-tag camel-derived nanobody AS718 VHH-His (camel-derived); assay: indirect ELISA, AS718 VHH-His coated, hybridoma supernatant
T1 construct: Immunogen; recombinantly expressed with a C-terminal His tag; also called immunogen AS718; immunogen AS718 VHH-His; not shown: C-terminal His tag
Protocol: The rabbit spleen was extracted and homogenized to produce a single-cell suspension, and a single-cell suspension of myeloma cells was prepared at the same time. 1.0×10⁸ splenocytes were fused with 1.2×10⁵ myeloma cells by electrofusion; the fused cells were resuspended in 100 ml of DMEM/10% FBS culture medium containing hybridoma selective agents, thymidine, hypoxanthine and aminopterin, and transferred to a 150×96-well plate in a volume of 100 μl with a pipette; and the plate was incubated at 37° C. in 6% CO₂. After 9 days of incubation, the indirect ELISA was used to evaluate the binding ability of the antibody in the supernatant to VHH-His, indicating the presence of the antibody to VHH-His.
The ELISA plate was coated with 100 μl/well of 0.5 μg/ml VHH-His or His protein in PBS at 4° C. overnight; the plate was washed with PBS-T (0.05% Tween20) and blocked with 200 μl/well of PBST containing 1% BSA at 37° C. for 0.5 hours; the blocking solution was aspirated and discarded, and 100 μl of hybridoma cell culture supernatant was added to each well and then incubated at room temperature for 1 hour; after the incubation, the supernatant was discarded, and the plate was washed three times with PBST and incubated with 100 μl/well of goat anti-rabbit IgG conjugated with horseradish peroxidase (GenScript Goat Anti-Rabbit IgG Antibody (H&L) [HRP], pAb; CAT #: A00098) at 37° C. for 0.5 hours; the plate was washed five times with PBST, and then a TMB color developing solution was added; and the plate was incubated in the dark at room temperature for 15 minutes. The reaction was stopped by adding 50 μl of 1 M HCl stop solution. The plate was read at 450 nm using a microplate reader. In FIG. 3, by the mode of indirect ELISA, immunogen AS718 VHH-His was used to coat the ELISA detection plate, and the titers of the supernatant stock solutions of 15 parent clones were detected by OD450 reading, and the cross-reactions thereof with the His-tag protein were detected at the same time to exclude non-specific combinations. In the experiment, the positive serum was used as a positive control for immunogen AS718 VHH-His, and the Anti-His antibody was used as a positive control for detection target His-tag protein in the reverse screening. The detection value greater than 0.5 was determined to be positive, and the detection value less than 0.2 was determined to be negative.

AS588 VHH = molecular target: T2, AS588 VHH (camel-derived); assay: indirect ELISA, VHH coated
T2 construct: One of the 10 different camel-derived nanobodies; not shown: His tag (VHH-His)
Protocol: (§1) The ELISA plate was coated with 10 different VHHs at […] in 100 μl/well of PBS at 4° C. overnight, respectively; the plate was washed with PBS-T (0.05% Tween) and blocked with 200 μl/well of PBST containing 1% BSA at 37° C. for 0.5 hours; the blocking solution was aspirated and discarded, and 100 μl of 1 μg/ml purified antibodies were added to the first well, diluted in a 3-fold gradient for a total of 11 test concentration gradients and incubated at room temperature for 1 hour; the plate was washed three times with PBST and incubated with 100 μl/well of goat anti-rabbit IgG conjugated with horseradish peroxidase (GenScript Goat Anti-Rabbit IgG Antibody (H&L) [HRP], pAb; CAT #: A00098) at 37° C. for 0.5 hours; the plate was washed five times with PBST, and then a TMB color developing solution was added; and the plate was incubated in the dark at room temperature for 15 minutes. The reaction was stopped by adding 50 μl of 1 M HCl stop solution. The plate was read at 450 nm using a microplate reader; and the binding abilities of 15 clones to VHH-His were obtained (as shown in FIGS. 6a and 6b). […] On one hand, the affinities of the antibody of the same camel-derived nanobody to different camel-derived nanobodies were different; on the other hand, the affinities of different antibodies of camel-derived nanobodies to the same camel-derived nanobody were different. However, on the whole, all the 15 purified antibodies can be recognized with 10 different camel-derived nanobodies.

AS519 VHH = molecular target: T3, AS519 VHH (camel-derived); assay: indirect ELISA, VHH coated
T3 construct: One of the 10 different camel-derived nanobodies; not shown: His tag (VHH-His)
Protocol: as §1

AS656 VHH = molecular target: T4, AS656 VHH (camel-derived); assay: indirect ELISA, VHH coated
T4 construct: One of the 10 different camel-derived nanobodies; not shown: His tag (VHH-His)
Protocol: as §1

AS200 VHH = molecular target: T5, AS200 VHH (camel-derived); assay: indirect ELISA, VHH coated
T5 construct: One of the 10 different camel-derived nanobodies; not shown: His tag (VHH-His)
Protocol: as §1

AS154 VHH = molecular target: T6, AS154 VHH (camel-derived); assay: indirect ELISA, VHH coated
T6 construct: One of the 10 different camel-derived nanobodies; not shown: His tag (VHH-His)
Protocol: as §1

AS673 VHH = molecular target: T7, AS673 VHH (camel-derived); assay: indirect ELISA, VHH coated
T7 construct: One of the 10 different camel-derived nanobodies; not shown: His tag (VHH-His)
Protocol: as §1

AS325 VHH = molecular target: T8, AS325 VHH (camel-derived); assay: indirect ELISA, VHH coated
T8 construct: One of the 10 different camel-derived nanobodies; not shown: His tag (VHH-His)
Protocol: as §1

AS675 VHH = molecular target: T9, AS675 VHH (camel-derived); assay: indirect ELISA, VHH coated
T9 construct: One of the 10 different camel-derived nanobodies; not shown: His tag (VHH-His)
Protocol: as §1

AS988 VHH = molecular target: T10, AS988 VHH (camel-derived); assay: indirect ELISA, VHH coated
T10 construct: One of the 10 different camel-derived nanobodies; not shown: His tag (VHH-His)
Protocol: as §1

AS587 VHH = molecular target: T11, AS587 VHH (camel-derived); assay: indirect ELISA, VHH coated
T11 construct: One of the 10 different camel-derived nanobodies; not shown: His tag (VHH-His)
Protocol: as §1

T4 sequence (VHH, as listed by the source): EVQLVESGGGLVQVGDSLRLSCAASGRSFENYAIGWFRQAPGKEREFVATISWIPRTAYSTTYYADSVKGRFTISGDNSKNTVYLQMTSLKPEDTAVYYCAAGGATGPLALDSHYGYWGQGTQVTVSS
T2 sequence (VHH, as listed by the source): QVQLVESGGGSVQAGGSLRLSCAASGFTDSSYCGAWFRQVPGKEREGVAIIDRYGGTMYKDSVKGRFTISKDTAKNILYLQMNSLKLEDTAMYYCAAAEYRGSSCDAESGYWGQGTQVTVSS
T3 sequence (VHH, as listed by the source): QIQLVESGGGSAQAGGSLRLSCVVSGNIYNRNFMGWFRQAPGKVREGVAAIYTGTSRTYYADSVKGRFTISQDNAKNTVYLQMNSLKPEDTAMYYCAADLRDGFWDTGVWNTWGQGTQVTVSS
T1 sequence (VHH, as listed by the source): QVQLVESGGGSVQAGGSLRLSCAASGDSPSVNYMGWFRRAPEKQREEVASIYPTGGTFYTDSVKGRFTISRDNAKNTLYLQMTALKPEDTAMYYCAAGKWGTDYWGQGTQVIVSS
T9 sequence (VHH, as listed by the source): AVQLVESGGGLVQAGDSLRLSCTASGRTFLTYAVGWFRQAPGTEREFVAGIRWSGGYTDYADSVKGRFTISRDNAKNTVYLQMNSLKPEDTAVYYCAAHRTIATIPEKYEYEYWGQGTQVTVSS
T10 sequence (VHH, as listed by the source): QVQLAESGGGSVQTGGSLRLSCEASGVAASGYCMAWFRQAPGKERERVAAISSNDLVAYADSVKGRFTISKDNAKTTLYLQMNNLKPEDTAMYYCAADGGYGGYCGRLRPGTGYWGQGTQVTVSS
T8 sequence (VHH, as listed by the source): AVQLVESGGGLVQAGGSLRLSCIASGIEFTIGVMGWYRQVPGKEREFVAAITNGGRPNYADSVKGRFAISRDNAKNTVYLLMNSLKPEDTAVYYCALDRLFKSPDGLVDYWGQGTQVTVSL
T7 sequence (VHH, as listed by the source): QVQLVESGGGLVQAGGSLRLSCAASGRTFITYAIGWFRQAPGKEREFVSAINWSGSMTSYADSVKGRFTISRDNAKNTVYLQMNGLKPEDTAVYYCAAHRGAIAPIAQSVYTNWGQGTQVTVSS
T6 sequence (VHH, as listed by the source): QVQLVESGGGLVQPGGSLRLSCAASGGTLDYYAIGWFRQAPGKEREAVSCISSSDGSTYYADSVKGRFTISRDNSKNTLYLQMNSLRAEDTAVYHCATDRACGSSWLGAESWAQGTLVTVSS
T11 sequence (VHH, as listed by the source): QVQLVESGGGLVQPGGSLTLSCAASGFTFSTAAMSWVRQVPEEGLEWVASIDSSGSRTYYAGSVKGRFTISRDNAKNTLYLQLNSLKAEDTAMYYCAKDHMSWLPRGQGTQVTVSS
T5 sequence (VHH, as listed by the source): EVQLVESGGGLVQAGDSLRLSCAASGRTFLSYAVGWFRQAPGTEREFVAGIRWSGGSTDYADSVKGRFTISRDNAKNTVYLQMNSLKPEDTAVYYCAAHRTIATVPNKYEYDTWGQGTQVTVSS

binding result [1]	binding result (AS588 VHH)	binding result (AS519 VHH)	binding result (AS656 VHH)	binding result (AS200 VHH)	binding result (AS154 VHH)	binding result (AS673 VHH)	binding result (AS325 VHH)	binding result (AS675 VHH)	binding result (AS988 VHH)	binding result (AS587 VHH)	Binder
binds	binds	binds	binds	binds	binds	binds	binds	binds	binds	binds	R166.G8 (antibody, V domains shown, Rabbit monoclonal; also called clone R166.G8) VH: LEQSGGGAEGGLVKPGGSLELCCKASGFSLSNIYWICWVRQAPGTGLEWIGCINSGSNSYTYYANWVDGRFTLSRDIDQSTGCLQLNSLTAADTAMYYCARDRDAADTSDWSLNFWGQGTLVTVSS VL: QVLTQTPSSVSAAVGGTVTISCQSSDSVNNDNWLAWYQQKPGQPPKLLIYQASKLASGVPSRFSGSGSGTQFTLTISGVQCDDAANYYCQGTGYSSTWYVAFGGGTEVVVKG
binds	binds	binds	binds	binds	binds	binds	binds	binds	binds	binds	R166.G2 (antibody, V domains shown, Rabbit monoclonal; also called clone R166.G2) VH: QSLEESGGRLVKPDETLTITCTVSGIDLSSDAMSWVRQAPGKGLEWIGLINRYGNTYYASWAKGRFTISKTSTTVDLKVTSLTTEDTATYFCARYGTDSDFYFLDLWGQGTLVTVSS VL: DIVMTQTPASVSEPVGGTVTIKCQASQSIYSYLSWYQQKPGQRPKLLIYKASKLVSGVPSRFRGSGSGTEFTLTISDLECADAASYYCQSDWLISSNGNTFGGGTEVVVTG
binds	binds	binds	binds	binds	binds	binds	binds	binds	binds	binds	R166.G10 (antibody, V domains shown, Rabbit monoclonal; also called clone R166.G10) VH: QSVEESGGRLVTPGTPLTLTCTVSGFSLSSSAVSWVRQAPGKGLEYIGIIGSGGSTYYASWVNGRFTISKTSTTVDLKMTSLTAADTATYFCARYGGNSGGYDSFNLWGQGTLVTVSS VL: DVVMTQTPASVSEPVGGTVTIKCQASQSIYSHLSWYQQKPGQPPKLLIHGASTLASGASSRFKASGSGTEFTLTISDLECADAATYYCQCTAGTSIYGNAFGGGTEVVVRG
binds	binds	binds	binds	binds	binds	binds	binds	binds	binds	binds	R166.G3 (antibody, V domains shown, Rabbit monoclonal; also called clone R166.G3) VH: QSVEESGGRLVTPGTPLTLTCTVSGIDLSRYAMGWVRQAPGKGLEYIGIIGYGGNTNYANWAKGRFTISKTSSTTVDLKMTSPTTEDTATYFCARDNKSGGNNGYPYYGLDLWGPGTLVTVSS VL: AYDMTQTPASVEVPVGGTVTINCQASQSISSHLAWYQQKRGQPPKVLIYYASTLASGVSSRFKGSGSGTEYTLTISGVECADAATYFCHQSYSGSDVDNTFGGGTEVVVRG

More lines, now with the values behind:

Binder	binding result [1]	binding result (AS588 VHH)	binding result (AS519 VHH)	binding result (AS656 VHH)	binding result (AS200 VHH)	binding result (AS154 VHH)	binding result (AS673 VHH)	binding result (AS325 VHH)	binding result (AS675 VHH)	binding result (AS988 VHH)	binding result (AS587 VHH)
R166.H8 (antibody, V domains shown, Rabbit monoclonal; also called clone R166.H8) VH: QSVEESGGRLVTPGTPLTLTCTVSGFSLSSFAMSWVRQAPGKGLEWIGIIYATGGTRDYATWAAGRFTISKTSTTVGLKMTSPTTEDTATYFCARDRSPDYSAAFNLWGQGTLVTVSS VL: IVMTQTPSSKSVPVGDTVTINCQASESVYSNNHLAWFQQKPGQPPKLLIYSASTLESGVPSRFKGSGSGTQFTLTISGVQCDDAATYYCAGYKSSDTDGTSFGGGTEVVVKG	binds	binds	binds	binds	binds	binds	binds	binds	binds	binds	binds
R166.E7 (antibody, V domains shown, Rabbit monoclonal; also called clone R166.E7) VH: QSVEESGGRLVTPGTPLTLTCTVSGFSLSSFAMSWVRQAPGKGLEWIGIIYTGGTRDYATWAKGRFTISKTSTTVDLKMTSPTTEDTATYFCARDRSPDYSAAFNLWGQGTLVTVSS VL: IVMTQTPSSKSVPVGDTVTINCQASESVYSNNHLAWFQQKPGQPPKLLIYSASTLESGVPSRFKGSGSGTQFTLTISGVQCDDAATYYCAGYKSSDTDGTSFGGGTEVVVKG	binds	binds	binds	binds	binds	binds	binds	binds	binds	binds	binds
R166.D1 (antibody, V domains shown, Rabbit monoclonal; also called clone R166.D1) VH: QSVEESGGRLVKPDESLTLTCTVSGFSLSNYDMIWVRQAPGKGLEWIGVIYPTGTTYYANWVKGRFTISKTSTTVGLLITSPTTEDTATYFCARKPILYVDSSGWYIDLWGQGTLVTVSS VL: AYDMTQTPSSVSAAVGGTVSIKCQASENINNYLSWYQQKPGQPPKLLIYQASRLASAVPSRFKGSGSGTQFTLTIDDLECADAATYYCQQGHSVSNDVGNVFGGGTEVVVKG	binds	binds	binds	binds	binds	binds	binds	binds	binds	binds	binds
R166.F2 (antibody, V domains shown, Rabbit monoclonal; also called clone R166.F2) VH: QSVEESGGRLVTPGTPLTLTCTASGFTISSHDMSWVRQAPGKGLEWIGYIYYGSGSTDYASWAEGRFTITRNTNENTVTLKMTSLTTEDTATYFCARGGYVGGGVDAFDPWGPGTVVTVSS VL: AYDMTQTPASVEVAVGGTVTIKCQASQSIYTYLSWYQQKPGQPPKLLIYRASTLASGVSSRFKGSGSGTDFTLTISGAQCADAATYYCQQGALSSNIHNTFGGGTEVVVKG	binds	binds	binds	binds	binds	binds	binds	binds	binds	binds	binds
